First the molecules themselves.
T1: Unconjugated peptide 5 (human)
T1 peptide: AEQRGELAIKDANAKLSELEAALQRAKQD

T2: Unconjugated peptide 25 (human)
T2 peptide: AIKDANAKLSELEA

T3: Unconjugated peptide 27 (human)
T3 peptide: AIKDANAKLSEL

T4: Unconjugated peptide 24 (human)
T4 peptide: AIKDANAKLSELEAA

T5: Unconjugated peptide 15 (human)
T5 peptide: ANAKLSELEAALQRAKQD

T6: Unconjugated peptide 8 (human)
T6 peptide: LEAALQRAKQD

T7: Unconjugated peptide 16 (human)
T7 peptide: DANAKLSELEAALQRAKQD

T8: Unconjugated peptide 6 (human)
T8 peptide: AALQRAKQD

T9: Unconjugated peptide 19 (human)
T9 peptide: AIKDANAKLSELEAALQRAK

T10: Unconjugated peptide 10 (human)
T10 peptide: SELEAALQRAKQD

T11: Unconjugated peptide 21 (human)
T11 peptide: AIKDANAKLSELEAALQR

T12: Unconjugated peptide 20 (human)
T12 peptide: AIKDANAKLSELEAALQRA

T13: Unconjugated peptide 18 (human)
T13 peptide: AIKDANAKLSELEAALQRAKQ

T14: Unconjugated peptide 17 (human)
T14 peptide: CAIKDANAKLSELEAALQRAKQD

T15: Unconjugated peptide 12 (human)
T15 peptide: KLSELEAALQRAKQD

T16: Unconjugated peptide 26 (human)
T16 peptide: AIKDANAKLSELE

T17: Unconjugated peptide 14 (human)
T17 peptide: NAKLSELEAALQRAKQD

T18: Unconjugated peptide 9 (human)
T18 peptide: ELEAALQRAKQD

T19: Unconjugated peptide 28 (human)
T19 peptide: AIKDANAKLSE

T20: Unconjugated peptide 7 (human)
T20 peptide: EAALQRAKQD

T21: Unconjugated peptide 13 (human)
T21 peptide: AKLSELEAALQRAKQD

T22: Unconjugated peptide 11 (human)
T22 peptide: LSELEAALQRAKQD

T23: Unconjugated peptide 22 (human)
T23 peptide: AIKDANAKLSELEAALQ

T24: BSA conjugated peptide 4 (human, also: conjugated to BSA via the thiol of the C-terminal Cys)
T24 peptide: SELEAALQRAKQDC(BSA)

T25: BSA conjugated peptide 2 (human, BSA coupled at the SH group of the C-terminal cysteine)
T25 peptide: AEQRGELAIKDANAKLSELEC

T26: BSA conjugated peptide 17 (human, BSA conjugated (the added cysteine is printed at the N-terminus))
T26 peptide: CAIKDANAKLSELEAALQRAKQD

T27: BSA conjugated peptide 1 (human, BSA coupled at the SH group of the C-terminal cysteine)
T27 peptide: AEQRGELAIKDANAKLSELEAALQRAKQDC

T28: BSA conjugated peptide 3 (human, also: conjugated to BSA via the thiol of the C-terminal Cys)
T28 peptide: AALQRAKQDC(BSA)

B1: Murine monoclonal antibody D-A10 (antibody, V domains shown)
VH: EVQLLETGGGLVQPGGSRGLSCEGSGFTFSGFWMSWVRQTPGKTLEWIGDINSDGSAIKYAPSIKDRFTIFRDNDKSTLYLQMSNVRSEDTATYFCIAHYSGGGFAYWGQGTSVTVSS
VL: NIVMTQAAPSVPVTPGESVSISCRSSKSLLYSNGNTYLYWFLQRPGQSPQRLIYYMSNLASGVPDRFSGRGSGTDFTLRISRVEAEDVGVYYCMQSLEYPFTFGGGTKLEIK
notes: Murine IgG from a hybridoma, purified from ascitic fluid on protein A; also called mD-A10 Mab; mD-A10
B2: Unconjugated peptide 1 (peptide)
peptide: T27 peptide

Test [1] has as its target T1, Unconjugated peptide 5. The test can be described thus: ELISA, coated unconjugated peptide. Here is the method: (§1) The CK8 peptides, coupled or not with the bovine serum albumin (BSA) at the SH group of the C-terminal cysteine, were immobilized (0.5 μg/ml or 1 μg/ml respectively) at the bottom of the wells of a 96 well plate overnight at room temperature. Unbound peptides are washed away with purified water supplemented by Tween (Sigma, St Quentin Fallavier, France). The wells are then saturated with a saline phosphate buffer solution (PBS) containing 5% BSA for 2 hours at room temperature (RT). Then the plates are washed away with purified water supplemented by Tween. The Mab binding to the coated peptides is tested at different Mab concentrations following an incubation for 2 hours at RT in PBS (Invitrogen, Villebon sur Yvette, France) supplemented by 1% Bovine Serum Albumin (Sigma, St Quentin Fallavier, France). Unbound Mabs are washed away with purified water supplemented by Tween. […] The absorbance is read at 450 nm and corrected at 630 nm. The specific requirements for the different experiments are detailed below.
(§2) The unconjugated peptides 1, 5 to 28 of human CK8 were immobilized (2 μg/ml) at the bottom of a 96-wells plate. Different Mab concentrations (from 10 μg/mL then diluted at 1/10) were incubated for 2 hours at room temperature alone or with each peptide tested. The optical density values (OD) was read at 450 nm and corrected at 630 nm. The results are shown in FIG. 13A (related to mD-A10) or on FIG. 13B (related to M20).

The target of test [2] is T2, Unconjugated peptide 25. The test can be described thus: ELISA, coated unconjugated peptide. Here is the method:
as §1, §2
(In an ELISA, binding on a coated surface is turned into a signal by an enzyme label.)

Test [3] addresses T3, Unconjugated peptide 27. The test can be described thus: ELISA, coated unconjugated peptide. How it is done: as §1, §2
Test [4] concerns the target T4, Unconjugated peptide 24. Put plainly: ELISA, coated unconjugated peptide. Here is the method: as §1, §2
The target of test [5] is T5, Unconjugated peptide 15. Put plainly: ELISA, coated unconjugated peptide. How it is done:
as §1, §2

Test [6] addresses T6, Unconjugated peptide 8. The test can be described thus: ELISA, coated unconjugated peptide. Here is the method:
as §1, §2

Test [7] concerns the target T7, Unconjugated peptide 16. The test can be described thus: ELISA, coated unconjugated peptide. Here is the method:
as §1, §2

The target of test [8] is B2. The test can be described thus: ELISA, coated unconjugated peptide. Here is the method: as §1, §2
Test [9] addresses T8, Unconjugated peptide 6. The test can be described thus: ELISA, coated unconjugated peptide. Here is the method: as §1, §2
Test [10] deals with T9, Unconjugated peptide 19. The test can be described thus: ELISA, coated unconjugated peptide. How it is done: as §1, §2
Test [11] has as its target T10, Unconjugated peptide 10. The test can be described thus: ELISA, coated unconjugated peptide. How it is done:
as §1, §2

Test [12] has as its target T11, Unconjugated peptide 21. Put plainly: ELISA, coated unconjugated peptide. Here is the method: as §1, §2
The target of test [13] is Unconjugated peptide 23 (human). The test can be described thus: ELISA, coated unconjugated peptide. Here is the method: as §1, §2
Test [14] deals with T12, Unconjugated peptide 20. Put plainly: ELISA, coated unconjugated peptide. Here is the method: as §1, §2
Test [15] has as its target T13, Unconjugated peptide 18. Put plainly: ELISA, coated unconjugated peptide. Here is the method: as §1, §2
In test [16] the target is T14, Unconjugated peptide 17. Put plainly: ELISA, coated unconjugated peptide. How it is done: as §1, §2
The target of test [17] is T15, Unconjugated peptide 12. Put plainly: ELISA, coated unconjugated peptide. Here is the method:
as §1, §2

In test [18] the target is T16, Unconjugated peptide 26. Put plainly: ELISA, coated unconjugated peptide. Here is the method:
as §1, §2

Test [19] concerns the target T17, Unconjugated peptide 14. Put plainly: ELISA, coated unconjugated peptide. How it is done:
as §1, §2

The target of test [20] is T18, Unconjugated peptide 9. The test can be described thus: ELISA, coated unconjugated peptide. Here is the method: as §1, §2
Test [21] concerns the target T19, Unconjugated peptide 28. Put plainly: ELISA, coated unconjugated peptide. How it is done: as §1, §2
Test [22] has as its target T20, Unconjugated peptide 7. The test can be described thus: ELISA, coated unconjugated peptide. Here is the method:
as §1, §2

In test [23] the target is T21, Unconjugated peptide 13. The test can be described thus: ELISA, coated unconjugated peptide. Here is the method: as §1, §2
The target in test [24] is T22, Unconjugated peptide 11. The test can be described thus: ELISA, coated unconjugated peptide. How it is done: as §1, §2
Test [25] addresses T23, Unconjugated peptide 22. Put plainly: ELISA, coated unconjugated peptide. How it is done: as §1, §2
Test [26] addresses T24, BSA conjugated peptide 4. Put plainly: ELISA, coated BSA conjugated peptide. Here is the method: as §1
(§3) Different Mab concentrations (from 10 μg/mL then diluted at 1/10) were incubated for 2 hours at room temperature with either the peptide 1, peptide 2, peptide 3, peptide 4 or peptide 17. The optical density values (OD) was read at 450 nm and corrected at 630 nm.

Test [27] concerns the target T25, BSA conjugated peptide 2. The test can be described thus: ELISA, coated BSA conjugated peptide. How it is done:
as §1, §3

Test [28] concerns the target T26, BSA conjugated peptide 17. Put plainly: ELISA, coated BSA conjugated peptide. How it is done:
as §1, §3

Test [29] deals with T27, BSA conjugated peptide 1. Put plainly: ELISA, coated BSA conjugated peptide. How it is done: as §1, §3
The target in test [30] is T28, BSA conjugated peptide 3. Put plainly: ELISA, coated BSA conjugated peptide. How it is done:
as §1, §3

In test [31] the target is B1. The test can be described thus: flow cytometry competition, free peptide against biotinylated antibody on Isreco-1 cells. How it is done:
2.10⁵ Isreco-1 cells per 96-wells were incubated with a biotinylated antibody anti-CK8 (12.5 μg/mL) with or without peptide 1 or peptide 2 tested at different concentrations and incubated at 4° C. for 30 min. Unbound antibody was washed away with PBS (Invitrogen, Villebon sur Yvette, France) supplemented by 1% Bovine Serum Albumin (Sigma, St Quentin Fallavier, France). Subsequently, cells were centrifuged (5 min at 400 g) and bound antibody was detected with Phycoerythrin conjugated Streptavidin (Interchim, Montlucon, France) at 4° C. for 30 min. Detection reagent was washed away and cells were centrifuged (5 min at 400 g) and suspended in 300 μL PBS. Bound detection antibody was quantified on a FACS CAN (BD Biosciences, Rungis, France), (FL2 channel, 2 000 events per acquisition). During the experiment, the respective isotype controls were included to exclude any unspecific binding events. The presence of peptide 1 inhibits cell labelling with the mD-D6 or mD-A10 Mab without any significant impact on M20 Mab cellular staining.
For orientation: In flow cytometry, cells or beads pass a laser one at a time.

Ends that are not written are not given here.

B1: the binding result is listed as “binds” in test [1]; “no binding (tested: from 10 ug/mL then diluted at 1/10)” in test [2]; “no binding (tested: from 10 ug/mL then diluted at 1/10)” in [3]; “no binding (tested: from 10 ug/mL then diluted at 1/10)” in [4]; “binds” in [5]; “no binding (tested: from 10 ug/mL then diluted at 1/10)” in [6]. The binding result in test [7] was “binds”; in [8], “binds”; in test [9], “no binding (tested: from 10 ug/mL then diluted at 1/10)”; in [10], “binds”; in test [11], “no binding (tested: from 10 ug/mL then diluted at 1/10)”; in [12] it was “binds”. For the same molecule, the binding result is recorded as “binds” in [13]; “binds” in test [14]; “binds” in test [15]; “binds” in test [16]; “binds” in test [17]; “no binding (tested: from 10 ug/mL then diluted at 1/10)” in test [18]. Also, the binding result in [19] was “binds”; in test [20], “no binding (tested: from 10 ug/mL then diluted at 1/10)”; in [21] it was “no binding (tested: from 10 ug/mL then diluted at 1/10)”; in [22] it was “no binding (tested: from 10 ug/mL then diluted at 1/10)”; in test [23], “binds”; in test [24], “binds”. Besides, the binding result in test [25] is given as “binds”; in test [26], “binds”; in [27], “no binding (tested: from 10 ug/mL then diluted at 1/10)”; in test [28], “binds”; in [29] it was “binds”; in test [30] it was “no binding (tested: from 10 ug/mL then diluted at 1/10)”.
For B2, the binding result in test [31] is recorded as “binds”.

The values are drawn from patent US20180237508A1 (INTERNATIONA DRUG DEVELOPMENT BIOTECH, published 2018).
